The target in one assay is T1, E4 Chimeric Receptor.
T1 chain: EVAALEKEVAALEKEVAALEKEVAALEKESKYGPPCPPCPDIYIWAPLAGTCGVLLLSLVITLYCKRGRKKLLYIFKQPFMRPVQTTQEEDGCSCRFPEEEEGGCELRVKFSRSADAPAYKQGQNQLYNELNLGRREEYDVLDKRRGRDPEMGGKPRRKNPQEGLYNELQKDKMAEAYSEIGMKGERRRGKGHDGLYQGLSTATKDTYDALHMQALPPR
In words: cell-based or functional assay.

Another assay has as its target T2, K4 Chimeric Receptor.
T2 chain: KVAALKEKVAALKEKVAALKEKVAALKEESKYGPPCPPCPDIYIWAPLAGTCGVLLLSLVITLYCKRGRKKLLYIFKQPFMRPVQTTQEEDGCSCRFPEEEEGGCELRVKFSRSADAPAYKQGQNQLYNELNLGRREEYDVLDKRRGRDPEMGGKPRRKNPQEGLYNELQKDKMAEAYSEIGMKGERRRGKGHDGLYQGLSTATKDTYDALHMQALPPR
In words: cell-based or functional assay.

B1: Fmc63 HCCT K4 switch (Fab, V domains shown)
VH: EVKLQESGPGLVAPSQSLSVTCTVSGVSLPDYGVSWIRQPPRKGLEWLGVIWGSETTYYNSALKSRLTIIKDNSKSQVFLKMNSLQTDDTAIYYCAKHYYYGGSYAMDYWGQGTSVTVSS
VL: DIQMTQTTSSLSASLGDRVTISCRASQDISKYLNWYQQKPDGTVKLLIYHTSRLHSGVPSRFSGSGSGTDYSLTISNLEQEDIATYFCQQGNTLPYTFGGGTKLEIKR
For B1, the “EC50 (nM) of switch in cytotoxicity assay (LDH release), E4 CAR-T cells against CD19-positive Raji luc cells” value with E4 Chimeric Receptor came to 0.00432 nM.

B2: Fmc63 HCCT E4 switch (Fab, V domains shown)
VH: EVKLQESGPGLVAPSQSLSVTCTVSGVSLPDYGVSWIRQPPRKGLEWLGVIWGSETTYYNSALKSRLTIIKDNSKSQVFLKMNSLQTDDTAIYYCAKHYYYGGSYAMDYWGQGTSVTVSS
VL: DIQMTQTTSSLSASLGDRVTISCRASQDISKYLNWYQQKPDGTVKLLIYHTSRLHSGVPSRFSGSGSGTDYSLTISNLEQEDIATYFCQQGNTLPYTFGGGTKLEIKR
Turning to B2, the “EC50 (nM) of switch in cytotoxicity assay (LDH release), K4 CAR-T cells against CD19-positive Raji luc cells” value with K4 Chimeric Receptor was 0.0507 nM.

The values are drawn from patent US20180118808A1 (CALIFORNIA INSTITUTE FOR BIOMEDICAL RESEARCH, published 2018).
